From paper PMC4571279 (2015) come the findings set out here.

Where a chain is given by its changes, count along the chain named.

Test [1] concerns the target recombinant MERS-CoV S1 protein (MERS-CoV). The test can be described thus: SPR. Background: Surface plasmon resonance follows binding to a sensor surface in real time, without labels.
For test [2] the target is unchanged. The test can be described thus: SPR. The source holds these as a separate data set.

B1: IgG1 m336-gL (all light-chain somatic mutations reverted to germline) (antibody, V domains shown)
VH: QVQLVQSGAEVKKPGSSVKVSCKASGGTFSSYAISWVRQAPGQGLEWMGGIIPIFGTASYAQKFQGRVTITADKSTSTAYMELSSLRSEDTAVYYCARVGYCSSTSCNRGAFDIWGQGTMVTVSS
VL: DIQMTQSPSSLSASVGDRVTITCRASQGIRNDLGWYQQKPGKAPKRLIYAASSLQSGVPSRFSGSGSGTEFTLTISSLQPEDFATYYCLQHNSYPLTFGGGTKVEIK
Take B1: in test [1], the koff was 0.000545 s⁻¹. In test [2], the Kd came out at 25.2 nM.

B2: IgG1 m336-gL-FR (light-chain framework somatic mutations reverted to germline) (antibody, V domains shown)
VH: B1 VH
VL: B1 VL with L89Q, H91L
As to B2, in test [1], the koff is 0.000769 s⁻¹. The Kd in test [2] stood at 15.7 nM.

B3: IgG1 m336-gH (heavy-chain somatic mutation reverted to germline) (antibody, V domains shown)
VH: B1 VH with S59N
VL: B1 VL with M4L, R46L, E70D, L89Q, H91L
With B3, the koff in test [1] is 0.000329 s⁻¹. Further, the Kd in test [2] was found to be 0.239 nM.

B4: IgG1 m336 (antibody, V domains shown)
VH: B1 VH
VL: B1 VL with M4L, R46L, E70D, L89Q, H91L
Regarding B4, the koff in test [1] turned out to be 0.000955 s⁻¹. The Kd in test [2] is 1.49 nM.

One may read the koff as a measure of how fast the partners let go of each other. In general, Kd refers to the free concentration of one partner at which half of the binding sites on the other are occupied at equilibrium, for simple one-to-one binding.
